Laboratory results published in patent publication US6200577A, “Anti-herpesviral agents and assays therefor” (priority 1996, dated 2001).
Entries after “also recorded” stand apart in the source; their conditions may differ.

Columns and labels:
[1] = Solubility of synthetic peptides in buffer; assay type: physicochemical; conditions: for Solubility following purification: HPLC-purified peptides; for Solubility: peptides dissolved in 20 mM Tris-HCl, pH 8.0, 250 mM NaCl, unpurified preparations
Procedure: Synthesis and Purification of Oligopeptides. Peptides were synthesised by continuous flow Fmoc chemistry (Atherton and Sheppard, 1989; McLean et al., 1991) and, where stated in the text, were purified by preparative reverse-phase HPLC (Owsianka et al., 1993). The Mr values of peptides were determined by fast atom bombardment mass spectrometry (M-Scan) and corresponded to the predicted values. Peptides were dissolved in 20 mM Tris-HCl, pH 8.0, 250 mM NaCl and centrifuged at 11,500 g for 1 minute prior to use. […] Precipitates were removed by centrifugation before use.

[2] = target: T1, VP16/VP22trunc interaction (Human herpesvirus 1, UniProt P06492); experiment: Far Western analysis of peptides blocking VP16 binding to immobilised VP22trunc; design: species or system HSV-1; conditions: for Blocking of VP16 binding to immobilised VP22trunc (Far Western), crude peptides: strips pre-incubated with 1 mg of crude peptide, FIG. 7A; for Blocking of VP16 binding to immobilised VP22trunc (Far Western), repeat with purified peptides D and E: strips pre-incubated with 1 mg peptide, FIG. 7B
T1 construct: Plasmid pETVP16 was used to express full-length VP16 under the control of the T7 RNA polymerase promoter; made in house; host or cells: E. coli BL21(DE3)
T1 sequence (P06492 whole entry): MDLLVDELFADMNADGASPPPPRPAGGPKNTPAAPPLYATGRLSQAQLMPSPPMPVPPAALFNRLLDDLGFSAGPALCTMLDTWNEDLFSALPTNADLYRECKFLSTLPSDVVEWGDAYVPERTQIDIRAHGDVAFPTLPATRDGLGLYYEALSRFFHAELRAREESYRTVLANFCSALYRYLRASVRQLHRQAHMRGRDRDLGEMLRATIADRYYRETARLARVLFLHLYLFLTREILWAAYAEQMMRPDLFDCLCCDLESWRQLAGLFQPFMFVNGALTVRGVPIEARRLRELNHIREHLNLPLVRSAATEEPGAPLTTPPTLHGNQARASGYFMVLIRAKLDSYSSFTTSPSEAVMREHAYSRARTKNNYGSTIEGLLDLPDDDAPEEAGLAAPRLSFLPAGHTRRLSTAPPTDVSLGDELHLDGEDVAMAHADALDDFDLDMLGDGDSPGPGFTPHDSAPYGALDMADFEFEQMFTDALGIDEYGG
Procedure: FIG. 7 Far Western analysis of the ability of peptides to block the interaction between VP16 and immobilised VP22trunc. Purified VP22trunc was added to partially purified extract of VP16 and the sample run on a 12% polyacrylamide gel. Proteins were then transferred to nitrocellulose membrane and the blot was cut into strips, with each strip containing approximately 1 g of VP22trunc. In (A), strips were pre-incubated with 1 mg of each of the following peptides: lane 2, no peptide, lane 3, peptide C; lane 4, peptide D; lane 5, peptide E; lane 6, peptide F; lane 7, peptides D and E; lane 8, peptides C and F. In (B) strips were pre-incubated with 1 mg of each of the following peptides: lane 2, no peptide, lane 3, peptide C; lane 4, purified peptide D; lane 5, purified peptide E; lane 6, peptide F. 24 g of pure VP16 was then added to strips 2 to 8 in (A) and strips 2 to 6 in (B), followed by incubation with LP1 antibody (1:1000 dilution). As a control, portions of the blot were incubated with LP1 or the 9220 antibody at a dilution of 1:1000 (lane 1 for LP1 in A and B; lane 9 in A and lane 7 in B for 9220). The apparent molecular weights of VP16 (65 KDa) and the dimer (32 KDa) and monomer (16 KDa) forms of VP22trunc are shown.
Following electrophoresis, proteins were electrotransferred to either Hybond or ProBlott (Applied Biosystems) membrane and the membrane was incubated in renaturation buffer (50 mM Tris-HCl, pH 8.0, 150 mM NaCl, 10% glycerol, 1 mM DTT) at 4° C. for 5-6 hours.
For membranes probed with either VP16 or VP22trunc, blocking was performed overnight as described for Western blot analysis. Probing with epitope-tagged VP22 or VP16 was performed in 20 mM Tris-HCl, pH 8.0, 250 mM NaCl for 1.5 hours at ambient temperature. Excess probe was removed by washing 4 times (10 minutes per wash) in 20 mM Tris-HCl, pH8.0, 250 mM NaCl, followed by incubation with the appropriate antibody at a dilution of 1:1000 in TTBS/1% gelatin for 1.5-2 hours. Bound antibody was detected as described for Western blot analysis.
Based on the studies with soluble VP16 and VP22trunc presented above, only a restricted number of peptides were examined by Far Western analysis to identify those that may prevent binding of VP16. Thus, VP22trunc was added to a crude extract of bacterially expressed VP16 and the proteins were electrophoresed on a polyacrylamide gel followed by transfer to a membrane. […] Before the addition of VP16 the blot strips in lanes 3 to 8 were incubated with crude preparations of peptides C, D, E, or E' as well as mixtures of either 0 and E or C and F. When the blot strips were incubated with peptides C and F either singly or in combination, VP16 bindincg to VP22trunc was not prevented (FIG. 7A, lanes 3, 6 and 8).

[3] = target: T2, VP16 (Human herpesvirus 1, UniProt P06492); experiment: ELISA of direct binding of VP16 to plate-coated peptides; design: species or system HSV-1; conditions: wells coated with peptide up to 500 μg/ml; VP16 1.6 μg/ml; FIG. 10
T2 construct: Plasmid pETVP16 was used to express full-length VP16 under the control of the T7 RNA polymerase promoter; made in house; host or cells: E. coli BL21(DE3)
T2 sequence (P06492 whole entry): as above
Procedure: FIG. 10 Binding of VP16 to peptides. Microtitre plates were coated with 5-fold dilutions of peptides ranging from 500 μg/ml to 1 μg/ml and blocked with PBS/10% NCS. VP16 was then added to a final concentration of 1.6 μg/ml and detected with LP1. The legend for the peptides added is shown to the right of the graph.
Dilutions of proteins in PBS were coated overnight onto flat bottomed micro-titre plates (Dynatech) at 37° C. and then blocked with either 2% BSA or 10% new-born calf serum (NCS) in PBS for 1 hour at 37° C. Specific binding of a second protein to the plate-bound protein was performed for 1.5-2 hours at ambient temperature. a Excess secondary protein was removed by washing four times with PBS, 0.3% Tween 20. Bound protein was detected by incubation for 1.5-2 hours with LP1 antibody in PBS, 1% gelatin or PBS, 2% NCS. The bound antibody was detected by incubation for 1 hour at ambient temperature with anti-mouse antibody conjugated to HRP (1:500) and visualised with Smg/ml enzyme substrate 2,2'-azino-bis(3-ethylbenzthiazoline-6-sulphonic acid) (ABTS; Sigma) in citrate-phosphate buffer containing 6 μl hydrogen peroxide in a total volume of 20 ml. Optical densities were measured on a Titertek Multiscan PLUS instrument.
To examine whether VP16 could bind directly to the peptides, wells were coated with each peptide (A-J) at a range of concentrations from […] to 500 μg/ml and the plate was then blocked with […]. […] Nonetheless, the data for peptides D and E implicate direct binding of these peptides to VP16 as the mechanism for inhibiting its interaction with VP22. Peptide H also was active in experiments which prevented gB binding to VP22trunc [Section 4 (iii)] and thus also forms an aspect of the invention.

| Sequence | Solubility following purification [1] | Solubility [1] | Blocking of VP16 binding to immobilised VP22trunc (Far Western), crude peptides [2] | Blocking of VP16 binding to immobilised VP22trunc (Far Western), repeat with purified peptides D and E [2] | Direct binding of VP16 to plate-coated peptide (ELISA) [3] |
| --- | --- | --- | --- | --- | --- |
| CAAVGRLAAMHARMAAVQLW [Peptide E] | not 100% soluble | partly; also recorded: partially insoluble | loss of recognition of VP22trunc | able to block binding of VP16 to VP22trunc | binding was found with higher concentrations |
| FSTAPPNPDAPWTPRVAGFN [Peptide C] |  | soluble | not prevented | had no effect | binding did not occur |
| TPRVAGFNKRVFCAAVGRLA [Peptide D] | not 100% soluble | partly; also recorded: partially insoluble | loss of recognition of VP22trunc | able to block binding of VP16 to VP22trunc | binding was found with higher concentrations |
